Data on four molecules can be found in patent publication US20170342144A1 (Sanofi, published 2017).

The target in test [1] is T1, human TGFβ1 (human, UniProt P01137 279-390).
T1 construct: also called TGFβ1 homodimer
Kind of test: cell-based or functional assay.

Test [2] addresses T1, human TGFβ1. Nature of the test: SPR (Biacore 3000), TGFβ1 amine-coupled to the chip, GC1008 IgG as analyte, 1:1 model, average of more than 25 assays. The method, then:
(§1) Additionally, the TGFβ isoform binding affinity of the GC1008 antibody was measured using a Biacore® 3000 (GE Healthcare) instrument. TGFβ1 and TGFβ2, produced in-house, were diluted to ˜1 μg/mL in 10 mM acetate, pH 4.5, and TGFβ3 (R&D Systems) was diluted to ˜2 μg/mL in 10 mM acetate, pH 4.0. Flowcells 2, 3, and 4 of a CMS sensor chip were covalently immobilized with 50 to 100 RU of TGFβ1, TGFβ2, and TGFβ3, respectively, using the standard amine coupling kit from GE Healthcare. Flowcell 1 was used as a control surface. […] The surface was regenerated with two 30 sec injections of 40 mM HCl at 75 μL/min. The sensorgrams were fit using a 1:1 binding model after subtraction of buffer and control flowcell refractive index changes with the BIA Evaluation Software Kit (GE Healthcare). The KD's shown in TABLE 6 are an average of more than 25 independent assays.
A general note: Surface plasmon resonance follows binding to a sensor surface in real time, without labels.

Test [3] concerns the target T2, human TGFβ3 (human, UniProt P10600 301-412).
T2 sequence: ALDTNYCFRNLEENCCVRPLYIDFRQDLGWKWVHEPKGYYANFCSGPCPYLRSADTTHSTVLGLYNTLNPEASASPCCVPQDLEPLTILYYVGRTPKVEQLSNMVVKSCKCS
Kind of test: SPR (Biacore 3000), TGFβ3 amine-coupled to the chip, GC1008 IgG as analyte, 1:1 model, average of more than 25 assays. How it is done: as §1

Test [4] has as its target T3, human TGFβ2 (human, UniProt P61812 303-414).
T3 construct: also called TGFβ2 homodimer
T3 sequence: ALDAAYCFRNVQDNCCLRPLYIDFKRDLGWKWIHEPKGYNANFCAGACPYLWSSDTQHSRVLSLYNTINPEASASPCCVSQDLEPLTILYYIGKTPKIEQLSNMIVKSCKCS
Kind of test: SPR (Biacore 3000), TGFβ2 amine-coupled to the chip, GC1008 IgG as analyte, 1:1 model, average of more than 25 assays. The method, then:
as §1

The target in test [5] is T2, human TGFβ3. Kind of test: Biacore, top 2 concentrations only (90, 30 nM), 1:1 global fit, vs wt GC1008. The method, then: (§2) In FIG. 6C, seventeen mutants were selected and scaled up to produce sufficient amount of purified protein for KD (equilibrium constant=kd/ka) analysis by Biacore. Multiple concentrations (90, 30, 10 and 3.33 nM) were used in duplicate on the 150 RU level TGFβ1, 2, and 3 immobilized surfaces. KD was calculated using global curve fitting analysis for a 1-to-1 Langmuir binding model. The experimental data from all four concentrations were used for calculation except for I54N and I54R mutants, where only the top 2 concentrations were used. The fold changes in KD were compared to the fold changes in kd (off rate) presented in FIG. 6B, and a heat map was generated for visualization. Similar fold changes were observed from the two data sets, confirming the validity of using kd as a parameter for screening of 155 single mutants as shown in FIG. 6B.

The target in test [6] is T1, human TGFβ1. Described as above. How it is done: as §2
Test [7] deals with T3, human TGFβ2. The description is as above. How it is done: as §2
Test [8] concerns the target T2, human TGFβ3. Kind of test: Biacore off-rate vs wt GC1008. The source says:
(§3) Plasmids encoding either the GC1008 heavy chain or light chain were used as a template in PCR-based mutagenesis reactions. Mutations to the encoding DNA were made to create 155 single amino acid substitutions of the encoded heavy chain amino acid sequence and one single amino acid substitution of the encoded light chain amino acid sequence. A QuikChange® Lightning Site-Directed Mutagenesis kit (Agilent Technologies, Santa Clara Calif.) was used according to the manufacturer's instructions to create DNA mutations using a set of forward and reverse primers, either designed for a specific amino acid or for all 20 amino acids with a degenerate codon (NNK). After sequencing confirmation, identified mutant DNA was paired with a wild-type light or heavy chain DNA for transfection into an Expi293F™ host cell suspension (Life Techonologies Corp., Grand Island, N.Y.). At 4 days post-transfection, conditioned media (1 mL) was harvested and purified using a 1 mL Protein A PhyTip® column (PhyNexus, Inc., San Jose, Calif.) and a PureSpeed™ 12-channel pipette (Rainin Instrument LLC, Oakland, Calif.). Purified variant antibody samples were analyzed in duplicate on a Biacore® 3000 (GE Healthcare) at 50 nM concentrations, using the 100 RU level TGFβ1, 2, and 3 immobilized surfaces. The off-rate (kd) of the variants was divided by the kd of the wild-type control to obtain the fold change in the kd. […] A heat map was generated to visualize the results. Variants that completely lost affinity for TGFβ were shown in red without numbers.

Test [9] addresses T1, human TGFβ1. Kind of test: Biacore off-rate vs wt GC1008.
From the text: as §3

In test [10] the target is T3, human TGFβ2. Nature of the test: Biacore off-rate vs wt GC1008.
From the text: as §3

Test [11] has as its target T2, human TGFβ3. Nature of the test: Biacore off-rate vs wt GC1008, 50 nM. Put shortly: (§4)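 Surface plasmon resonance on a Biacore 3000 measured how fast purified antibody variants dissociated from TGFβ isoforms immobilized at about 100 RU. Variants carried single heavy- or light-chain substitutions and were produced by transient Expi293F transfection with Protein A cleanup. Samples at 50 nM were tested in duplicate, and each variant kd was divided by the wild-type control kd to give fold change.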

In test [12] the target is T1, human TGFβ1. Nature of the test: Biacore off-rate vs wt GC1008, 50 nM. In a few lines: as §4
In test [13] the target is T3, human TGFβ2. Kind of test: Biacore off-rate vs wt GC1008, 50 nM. Put shortly: as §4

Where a chain is given by its changes, count along the chain named.

T1 sequence (P01137 279-390 limits assumed): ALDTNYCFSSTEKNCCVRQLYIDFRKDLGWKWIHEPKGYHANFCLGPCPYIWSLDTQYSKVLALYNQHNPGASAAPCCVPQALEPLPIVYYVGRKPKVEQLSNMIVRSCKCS

In turn, 1D11.16 (antibody) yielded a % neutralization in MLEC proliferation assay at 91 pM antibody in [1] of 12%.

B1: GC1008 (antibody, human IgG4, V domains shown)
VH: QVQLVQSGAEVKKPGSSVKVSCKASGYTFSSNVISWVRQAPGQGLEWMGGVIPIVDIANYAQRFKGRVTITADESTSTTYMELSSLRSEDTAVYYCASTLGLVLDAMDYWGQGTLVTVSS
VL: ETVLTQSPGTLSLSPGERATLSCRASQSLGSSYLAWYQQKPGQAPRLLIYGASSRAPGIPDRFSGSGSGTDFTLTISRLEPEDFAVYYCQQYADSPITFGQGTRLEIK
notes: also called GC1008 antibody; wild-type control
B1: the Kd in [2] is 1.7 nM; in test [3] it was 2 nM; in test [4] it was 3 nM.

B2: I54R (antibody, V domains shown)
VH: B1 VH with I54R
VL: B1 VL
notes: GC1008 IgG4 variant
As to B2, the “KD mutant/KD wt” value in test [5] was determined as 11.4; in test [6], 11; in test [7] it was 5.3. The kd mutant/kd wt in test [8] was found to be 4.8; in [9], 7.6; in test [10], 5.2. Also, the values for the kd var/kd wt in test [11], in [12] and in [13] were 4.8, 7.6 and 5.2, respectively.

B3: I54N (antibody, V domains shown)
VH: B1 VH with I54N
VL: B1 VL
notes: GC1008 IgG4 variant
For B3, the “KD mutant/KD wt” value in [5] stood at 13.1; in test [6] it was 7; in test [7] it was 4.5. Also, the kd mutant/kd wt stood at 4.3 in [8], 4.9 in test [9] and 2.4 in test [10]. In addition, the figures for the kd var/kd wt in [11], in [12] and in test [13] were 4.3, 4.9 and 2.4, respectively.

Broadly, the Kd is the free concentration of one partner at which half of the binding sites on the other are occupied at equilibrium, for simple one-to-one binding. Higher therefore signals weaker binding.
